Some targets named below: ABP 710; infliximab (US); infliximab (EU).
Experiment in all cases: SPR; Biacore T200; recombinant human TNFα immobilized on a CM5 chip, antibody captured through binding to TNFα; association and dissociation globally fit to a 1:1 binding model; average of 3 intra-assay replicates per lot
For orientation: Surface plasmon resonance follows binding to a sensor surface in real time, without labels.

Take FcγRIIIa (158V): in the assay with ABP 710, the Kd (in general, the constant that tells how readily two partners part at equilibrium) was 68 to 80 nM.

In the case of FcγRIIIa (158V) (receptor), the Kd lay in the range of 63 to 93 nM with infliximab (US) and 59 to 89 nM with infliximab (EU).

Values taken from publication PMC7261735.
